# Results as given in patent US20230322953A1 (HARBOUR BIOMED SHANGHAI, published 2023).
# Where a chain is given by its changes, count along the chain named.
# T1: human BCMA (human, UniProt Q02223 1-184)
# T1 construct: whole, on cells; also called hBCMA; TNFRSF17
# T1 sequence (looked up): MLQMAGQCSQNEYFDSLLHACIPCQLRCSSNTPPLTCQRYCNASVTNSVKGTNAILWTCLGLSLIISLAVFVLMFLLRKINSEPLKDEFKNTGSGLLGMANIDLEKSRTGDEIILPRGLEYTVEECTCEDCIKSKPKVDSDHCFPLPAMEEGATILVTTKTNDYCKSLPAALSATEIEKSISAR
# B1: PR001996 (bispecific antibody, IgG1)
# chain 1: EVQLLESGGGLVQPGGSLRLSCAASGFTFNTYAMNWVRQAPGKGLEWVSRIRSKYNNYATYYADSVKDRFTISRDDSKSTLYLQMNSLRAEDTAVYYCVRHGNFGNSYVSWFAYWGQGTLVTVSSASTKGPSVFPLAPSSKSTSGGTAALGCLVKDYFPEPVTVSWNSGALTSGVHTFPAVLQSSGLYSLSSVVTVPSSSLGTQTYICNVNHKPSNTKVDKKVEPKSC
# chain 2: QAVVTQEPSLTVSPGGTVTLTCRSSTGAVTTSNYANWVQQKPGQAPRGLIGGTNKRAPWTPARFSGSLLGDKAALTLLGAQPEDEAEYFCALWYSNLWVFGGGTKLTVLGQPKAAPSVTLFPPSSEELQANKATLVCLISDFYPGAVTVAWKADSSPVKAGVETTTPSKQSNNKYAASSYLSLTPEQWKSHRSYSCQVTHEGSTVEKTVAPTECSDKTHTCPPCPAPEAAGGPSVFLFPPKPKDTLMISRTPEVTCVVVDVSHEDPEVKFNWYVDGVEVHNAKTKPREEQYNSTYRVVSVLTVLHQDWLNGKEYKCKVSNKALGAPIEKTISKAKGQPREPQVYTLPPCREEMTKNQVSLWCLVKGFYPSDIAVEWESNGQPENNYKTTPPVLDSDGSFFLYSKLTVDKSRWQQGNVFSCSVMHEALHNHYTQKSLSLSPGK
# chain 3: EVQLVETGGGLIQPGGSLRLSCAASGFPVSSNYMSWVRQAPGKGLEWVSVIFSGGRTYYADSVKGRFTISRDNSKNTLYLQMNSLRAEDTAVYYCARRNWIDGRDAFDIWGQGTMVTVSSASEPKSSDKTHTCPPCPAPEAAGGPSVFLFPPKPKDTLMISRTPEVTCVVVDVSHEDPEVKFNWYVDGVEVHNAKTKPREEQYNSTYRVVSVLTVLHQDWLNGKEYKCKVSNKALGAPIEKTISKAKGQPREPQVCTLPPSREEMTKNQVSLSCAVKGFYPSDIAVEWESNGQPENNYKTTPPVLDSDGSFFLVSKLTVDKSRWQQGNVFSCSVMHEALHNHYTQKSLSLSPGK
# notes: BCMAxCD3, Fab(cross Fd/LC)-Fc-VH (structure 13); CD3 of PR000511, BCMA VH of PR000943; IgG1 knob/hole, AAG
# B2: PR001997 (bispecific antibody, IgG1)
# chain 1: B1 chain 1
# chain 2: B1 chain 2
# chain 3: B1 chain 3 with P28T, S35T, R56S, N99I, W100A, I101V, D102A, R104H, A106V
# notes: BCMAxCD3, Fab(cross Fd/LC)-Fc-VH (structure 13); CD3 of PR000511, BCMA VH of PR001035; IgG1 knob/hole, AAG
# B3: PR001999 (bispecific antibody, IgG1)
# chain 1: QAVVTQEPSLTVSPGGTVTLTCRSSTGAVTTSNYANWVQQKPGQAPRGLIGGTNKRAPWTPARFSGSLLGDKAALTLLGAQPEDEAEYFCALWYSNLWVFGGGTKLTVLGGGQSGQGGSGGGGSEVQLVESGGGLVQPGGSLKLSCAASGFTFNTYAMNWVRQASGKGLEWVGRIRSKYNNYATYYADSVKDRFTISRDDSKSTLYLQMNSLKTEDTAVYYCVRHGNFGNSYVSWFAYWGQGTLVTVSSASEPKSSDKTHTCPPCPAPEAAGGPSVFLFPPKPKDTLMISRTPEVTCVVVDVSHEDPEVKFNWYVDGVEVHNAKTKPREEQYNSTYRVVSVLTVLHQDWLNGKEYKCKVSNKALGAPIEKTISKAKGQPREPQVYTLPPCREEMTKNQVSLWCLVKGFYPSDIAVEWESNGQPENNYKTTPPVLDSDGSFFLYSKLTVDKSRWQQGNVFSCSVMHEALHNHYTQKSLSLSPGK
# chain 2: EVQLLESGGGLVQPGGSLRLSCAASGFTFSSYAMIWVRQAPGKGLEWVSGISESGGSTYYADSVKGRFTISRDNSKNTLYLQMNSLRAEDTAVYFCVKDLDDILTGYYKDYWGQGTLVTVSSASEPKSSDKTHTCPPCPAPEAAGGPSVFLFPPKPKDTLMISRTPEVTCVVVDVSHEDPEVKFNWYVDGVEVHNAKTKPREEQYNSTYRVVSVLTVLHQDWLNGKEYKCKVSNKALGAPIEKTISKAKGQPREPQVCTLPPSREEMTKNQVSLSCAVKGFYPSDIAVEWESNGQPENNYKTTPPVLDSDGSFFLVSKLTVDKSRWQQGNVFSCSVMHEALHNHYTQKSLSLSPGK
# notes: CD3 scFv of PR000510, BCMA VH of PR000940; IgG1 knob/hole, AAG
# B4: PR003870 (bispecific antibody, human IgG1, lambda, L234A L235A)
# light: QAVVTQEPSLTVSPGGTVTLTCRSSTGAVTTSNYANWVQQKPGQAPRGLIGGTNKRAPWTPARFSGSLLGDKAALTLLGAQPEDEAEYFCALWYSNLWVFGGGTKLTVLGQPKAAPSVTLFPPSSEELQANKATLVCLISDFYPGAVTVAWKADSSPVKAGVETTTPSKQSNNKYAASSYLSLTPEQWKSHRSYSCQVTHEGSTVEKTVAPTECS
# heavy: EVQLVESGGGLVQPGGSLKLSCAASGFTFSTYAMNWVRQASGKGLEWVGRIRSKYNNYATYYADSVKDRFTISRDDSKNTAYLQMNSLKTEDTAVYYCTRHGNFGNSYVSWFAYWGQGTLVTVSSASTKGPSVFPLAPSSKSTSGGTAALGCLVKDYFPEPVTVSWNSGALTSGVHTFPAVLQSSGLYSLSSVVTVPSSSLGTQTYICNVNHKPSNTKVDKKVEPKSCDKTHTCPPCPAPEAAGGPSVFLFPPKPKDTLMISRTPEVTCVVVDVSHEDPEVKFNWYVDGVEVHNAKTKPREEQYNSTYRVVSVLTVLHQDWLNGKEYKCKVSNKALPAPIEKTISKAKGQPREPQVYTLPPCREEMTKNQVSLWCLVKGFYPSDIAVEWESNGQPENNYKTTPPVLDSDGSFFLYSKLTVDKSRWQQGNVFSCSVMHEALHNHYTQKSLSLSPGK
# chain: EVQLVETGGGLIQPGGSLRLSCAASGFTVSDAYMTWVRQAPGKGLEWVSVIFSGGNTYVSDSVKGRFTISRDNAKNTLYLQMNSLRAEDTALYYCARRNYDQTIGTDVFDIWGQGTMVTVSSASEPKSSDKTHTCPPCPAPEAAGGPSVFLFPPKPKDTLMISRTPEVTCVVVDVSHEDPEVKFNWYVDGVEVHNAKTKPREEQYNSTYRVVSVLTVLHQDWLNGKEYKCKVSNKALPAPIEKTISKAKGQPREPQVCTLPPSREEMTKNQVSLSCAVKGFYPSDIAVEWESNGQPENNYKTTPPVLDSDGSFFLVSKLTVDKSRWQQGNVFSCSVMHEALHNHYTQKSLSLSPGK
# notes: BCMAxCD3, Fab-Fc-VH (structure 11); CD3 Fab of PR003886, BCMA VH of PR004565; IgG1 knob/hole, LALA
# B5: PR001998 (bispecific antibody, IgG1)
# chain 1: B1 chain 1
# chain 2: B1 chain 2
# chain 3: B4 chain with A32N, V59Y, S60A, Q102D, I104R, P238G
# notes: BCMAxCD3, Fab(cross Fd/LC)-Fc-VH (structure 13); CD3 of PR000511, BCMA VH of PR001046; IgG1 knob/hole, AAG
# B6: PR003872 (bispecific antibody, human IgG1, lambda, L234A L235A)
# light: B4 light
# heavy: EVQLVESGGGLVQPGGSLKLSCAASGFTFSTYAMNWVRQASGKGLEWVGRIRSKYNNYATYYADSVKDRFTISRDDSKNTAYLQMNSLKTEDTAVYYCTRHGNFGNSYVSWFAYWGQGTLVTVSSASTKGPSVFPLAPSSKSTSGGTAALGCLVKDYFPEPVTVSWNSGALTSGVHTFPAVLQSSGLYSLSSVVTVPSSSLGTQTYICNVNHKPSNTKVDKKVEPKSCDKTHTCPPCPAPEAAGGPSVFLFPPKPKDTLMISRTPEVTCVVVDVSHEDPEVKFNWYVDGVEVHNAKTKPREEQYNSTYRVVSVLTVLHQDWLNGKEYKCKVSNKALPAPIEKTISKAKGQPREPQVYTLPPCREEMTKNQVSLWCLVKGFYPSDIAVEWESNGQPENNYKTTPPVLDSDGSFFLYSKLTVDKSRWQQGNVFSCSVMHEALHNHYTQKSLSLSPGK
# chain: B4 chain with A32S, N56K, S60A, I104R
# notes: BCMAxCD3, Fab-Fc-VH (structure 11); CD3 Fab of PR003886, BCMA VH of PR004567; IgG1 knob/hole, LALA
# Target: T1, human BCMA
# Assay: FACS on NCI-H929 cells
# Description: This example is intended to investigate the binding activity of anti-BCMA HCAb antibodies to human and cynomolgus monkey BCMAs. […] Specifically, HEK293T/hBCMA cells and HEK293T/cyno BCMA cells were digested and resuspended in a DMEM complete medium. In addition, NCI-H929 cell suspension was collected. The density of each of the three cells was adjusted to 1×10⁶ cells/mL. […] The cells were incubated at 4° C. for 1 h away from light. Thereafter, the cells in each well were rinsed twice with 100 μL of pre-cooled PBS, and centrifuged at 500 g at 4° C. for 5 min, and then the supernatant was discarded. […] The cells in each well were rinsed twice with 100 μL of pre-cooled PBS, and centrifuged at 500 g at 4° C. for 5 min, and then the supernatant was discarded. Finally, the cells in each well were resuspended in 200 μL of pre-cooled PBS. Fluorescence signal values were read using a BD FACS CANTOII flow cytometer or an ACEA NovoCyte flow cytometer, and the data were processed and analyzed using FlowJo v10 (FlowJo, LLC) software. The data were processed and analyzed by plotting using GraphPad Prism 8 software, and binding curves of the antibodies to target cells, EC₅₀ values and other parameters were obtained through four-parameter nonlinear fitting.
Maximum MFI,EC50 [nM],Binder
3320,–,B1
1460,–,B2
3480,–,B3
10600,3.3,B4
3260,–,B5
11300,1.1,B6
